Measurements: publication PMC10685452
Where no end group is shown, it is not given here.

Biological target: T1, hGOAT-eGFP (human ghrelin O-acyltransferase with C-terminal eGFP and His10 tag) (human) (UniProt Q96T53)
T1 sequence: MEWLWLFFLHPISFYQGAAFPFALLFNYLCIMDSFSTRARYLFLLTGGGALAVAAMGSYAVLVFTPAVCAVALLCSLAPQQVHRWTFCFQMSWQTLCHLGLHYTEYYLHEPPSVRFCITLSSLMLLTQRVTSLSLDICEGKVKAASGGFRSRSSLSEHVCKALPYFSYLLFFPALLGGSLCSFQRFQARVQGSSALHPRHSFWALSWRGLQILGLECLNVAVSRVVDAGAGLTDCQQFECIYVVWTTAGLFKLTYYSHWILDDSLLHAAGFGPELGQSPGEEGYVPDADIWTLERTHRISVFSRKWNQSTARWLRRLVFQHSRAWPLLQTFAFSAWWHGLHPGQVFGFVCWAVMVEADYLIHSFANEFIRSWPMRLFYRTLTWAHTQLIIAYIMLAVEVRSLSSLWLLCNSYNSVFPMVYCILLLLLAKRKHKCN

B1: fluorescently labeled ghrelin mimetic peptide GSSFLC-NH2 (acrylodan-labelled) (peptide)
peptide: GSSFLC-NH2
modifications: not fully specified (residue 6); printed as GSSFLC_NH2_; ends and bridges not checked; also: acrylodan label, site not given here
  ghrelin octanoylation activity of the MEGA-9 solubilisation supernatant of hGOAT-eGFP (HPLC, conversion of the fluorescent peptide substrate to the octanoylated product): 20%
